From the supplement of paper PMC9170038

System: MS2 coat protein
Assay: apparent KD of MS2 coat protein; designed switch direction (-1 OFF switch, 1 ON switch): -1; higher = weaker reporter binding
Summary of the method: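 Apparent KD, taken as the median over clusters for each design, was obtained by curve-fitting normalised cluster fluorescence. Designed RNA switches had been transcribed on Illumina chips by stalled E. coli RNA polymerase and titrated with SNAP-549-labelled MS2 coat protein, doubling from 0.7 or 1.5 nM to 3 µM.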

[1] = input ligand: microRNA oligo, concentration not stated

Row | Sequence | apparent KD of MS2 coat protein (input ligand: FMN 200 uM) | apparent KD of MS2 coat protein [1] | apparent KD of MS2 coat protein (input ligand: none)
1 | ACAUGAGGAUCACCCAUGUACAGGGUUUAGUUUCAUCGUUUGAAGGAUAUACACUGUUAGUUGUCGUAGAAGGUCACUGAUUGG [JR_ExcNG3_Sub010] (Eterna round: R96, puzzle: Exclusion NG 3) | 93.9 nM | 93.3 nM | 130 nM
2 | ACAUGAGGAUCACCCAUGUCCGGCUGGUCCGUCUCGGCUGUCGAGGAUAUAGCUCGGUAUCCGCGCUAGAAGGCGGGAGCCGGA [Aenatbe mod 84] (Eterna round: R96, puzzle: Exclusion NG 3) | 45.3 nM | 29.1 nM | 44.4 nM
3 | ACAUGAGGAUCACCCAUGUCCGGCUGGUCUGUCUCGGCUGUCGAGGAUAUAGCACGGUAUCCGCGCUAGAAGGCGGGAGCCGGG [Aenatbe mod 88] (Eterna round: R96, puzzle: Exclusion NG 3) | 237 nM | 127 nM | 193 nM
4 | ACAUGAGGAUCACCCAUGUCGAGUACAUGAGGAUCACCCAUGUAGGAUAUGGUUCGCUUUGCGUGCUAGAAGGAUAUAUGUUGA [salish99_ExNG3_r04_511] (Eterna round: R96, puzzle: Exclusion NG 3) | 780 nM | 297 nM | 457 nM
5 | ACAUGAGGAUCACCCAUGUGAAAAGAAUGGCUGACACAGAGAUAGGAUAUGUGUGCAUAUCUAACACAGAAGGGUCAUGACUGG [Deportation 80 - Jieux - Exclusion NG 3] (Eterna round: R96, puzzle: Exclusion NG 3) | 41.6 nM | 34.2 nM | 40.1 nM
6 | ACAUGAGGAUCACCCAUGUGAAAGAAAUGGCUGACUUUGAGCUAGGAUAUUUGUGCAUAUCAAACAAAGAAGGAGCAUUACUGG [Deportation 99 - Jieux - Exclusion NG 3] (Eterna round: R96, puzzle: Exclusion NG 3) | 20.4 nM | 16.9 nM | 20.6 nM
7 | ACAUGAGGAUCACCCAUGUGCACGUAAUGGCUCAUGUAGAGUGAGGAUAUGCGUGGCGAACGAGCGCAGAAGGCACAAGACUGG [Deportation 17 - Jieux - Exclusion NG 3] (Eterna round: R96, puzzle: Exclusion NG 3) | 106 nM | 56.4 nM | 72.6 nM
8 | ACAUGAGGAUCACCCAUGUUUGGCUGGUCCUCUCCGGCUGUCGAGGAUAUAGUACGGUAUCCGCGCUAGAAGGUGAGGGCCGGC [Aenatbe] (Eterna round: R96, puzzle: Exclusion NG 3) | 16.4 nM | 10.1 nM | 17.1 nM
9 | ACAUGAGGAUCACCCAUGUUUGGCUGGUCGUCUCCGGCUGUCGAGGAUAUAGUACGGUAUCCGCGCUAGAAGGUGAGGGCCGGC [Raxeorer] (Eterna round: R96, puzzle: Exclusion NG 3) | 11.5 nM | 14.6 nM | 19.3 nM
10 | ACAUGAGGAUCACCCAUGUUUGGCUGGUUCUCUCCGGCUGUUGAGGAUAUAGUCCGGUAUCCGCGCUAGAAGGUGAGGGCUGGC [Aenatbe mod 7] (Eterna round: R96, puzzle: Exclusion NG 3) | 13.5 nM | 15.8 nM | 24.2 nM
11 | ACAUGAGGAUCACCCAUGUUUGGCUGGUUUUCUCCGGCUGUCGAGGAUAUAGUCCGGUAUCCGCGCUAGAAGGUGAGGGUCGGC [Aenatbe mod 3] (Eterna round: R96, puzzle: Exclusion NG 3) | 12.1 nM | 17.6 nM | 21.6 nM
12 | ACAUGAGGGAAGGGAGGAGGGACAUGAGGAUCACCCAUGUCUCAGGAUAUAGAAGAAGAAAGAAACUAGAAGGGAGAGGAGGGU [Kawasakiqro] (Eterna round: R96, puzzle: Exclusion NG 3) | 29.7 nM | 16.6 nM | 25 nM
13 | ACAUGCCUUGCAGGAUAUAGGACACAUGAGGAUCACCCAUGUGGUUUCAUGUCUAACCAAGCGUCCUAGAAGGGCGGGAACAUG [Ex NG2 #28] (Eterna round: R96, puzzle: Exclusion NG 2) | 44.9 nM | 25.8 nM | 36.5 nM
14 | ACAUGUAAUGCAGGAUAUCUGACACAUGAGGAUCACCCAUGUGACCAGAGGAAUUGCUAAGAGUCGGAGAAGGGUAUGUACAUG [Ex NG2 #53] (Eterna round: R96, puzzle: Exclusion NG 2) | 19.4 nM | 12.8 nM | 19.7 nM
15 | ACAUGUCAUCGAGGAUAUUGGACACAUGAGGAUCACCCAUGUACUCGGAGGCUCUACUAUGAGUUCGAGAAGGCGAUGUACAUG [Ex NG2 #75] (Eterna round: R96, puzzle: Exclusion NG 2) | 355 nM | 45.4 nM | 49.9 nM
16 | ACAUGUCUUGUAGGAUAUAGUUGACAUGAGGAUCACCCAUGUUGAUUCAUGUCUAUCGAAAGGGACUAGAAGGACGAGAAUAUG [Ex NG2 #16] (Eterna round: R96, puzzle: Exclusion NG 2) | 87.5 nM | 20 nM | 32.2 nM
17 | ACAUUACAUGAGGAUCACCCAUGUGAGGAUAUGGAGCGAGACUGUCCUGUCGCGUACACCAGAAGGCGCGGGUG [1st #51] (Eterna round: R97, puzzle: Exclusion 1) | 115 nM | – | 131 nM
18 | ACCUCACAUGAGGAUCACCCAUGUCAGGAUAUCUAAUGUAGUCGCGUUCCCGACGCUAAGAGAAGGGACAUUAA [EX1 #34] (Eterna round: R97, puzzle: Exclusion 1) | 22.6 nM | – | 14.1 nM
19 | ACCUCACAUGAGGAUCACCCAUGUCAGGAUAUCUAAUGUAGUCGCGUUCCCGACGCUAAGAGAAGGGACGUUAA [EX1 #35] (Eterna round: R97, puzzle: Exclusion 1) | 14.6 nM | – | 16.1 nM
20 | ACCUCCGCGAAGGAUAUUAGCACAUUGACAGAUUGAGAAGGUCGCACAUGAGGAUCACCCAUGUGAGGUCAUCC [Eternabot (L1) Solution 82] (Eterna round: R97, puzzle: Exclusion 6) | 19.3 nM | – | 21.5 nM
